US20030045470A1

Target: Gal4 DBD-COUP-TF fusion protein (yeast) (UniProt P04386)
Test: cell-based or functional assay

## PGC-1 (expressed from pCMV-PGC-1 in transfected cells) (from UniProt O70343 1-797)
  PGC-1 mediated activation of mutant PEPCK promoter-luciferase constructs (% of that achieved by HNF-4α): 20 to 30
